Data from patent US20260374869 (published 2026).

Biological target: T1, human CD2 (human, UniProt P06729)
T1 chain: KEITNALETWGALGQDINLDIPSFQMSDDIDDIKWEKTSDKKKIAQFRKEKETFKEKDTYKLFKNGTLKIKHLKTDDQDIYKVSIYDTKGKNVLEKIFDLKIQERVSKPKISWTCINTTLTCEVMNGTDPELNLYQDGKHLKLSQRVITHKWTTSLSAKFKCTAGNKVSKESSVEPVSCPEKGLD
Assay: SPR

B1: DARPin #1 (designed binder)
chain: DLGVKLLHAAQTGQDDEVRILLAAGADVNAKDWLGVTPLHYAAWIGHLEIVEVLLKAGADVNAKDWQGQTPLHLAAQWGHLEIVEVLLKAGADVNAQDNHGNTPADLAAEVGHEDIAEVLQKAA
- Kd: 3.28 nM

B2: DARPin #2 (designed binder)
chain: DLGKKLLQAARAGQLDEVRELLKAGADVNAKDQHGFTPLHVAAKEGHLEIVEVLLKAGADVNAKDSFGETPLHLAAEHGHLEIVEVLLKAGADVNAKDQSGWTPLHLAAWAGHLEIVEVLLKAGADVNAQDKSGKTPADLAARAGHQDIAEVLQKAA
- Kd: 382 nM

B3: DARPin #3 (designed binder)
chain: DLGKKLLQAARAGQLDEVRELLKAGADVNAKDQQGVTPLHIAAYGHLEIVEVLLKAGADVNAKDLQGETPLHVAAWAGHLEIVEVLLKAGADVNAKDKHGITPLHLAAKKGHLEIVEVLLKAGAEVNAQDKSGKTPADLAARAGHQDIAEVLQKAA
- Kd: 48 nM

B4: DARPin #15 (designed binder)
chain: DLGDKLLEAAQYGQDDEVRILLAAGADVNAKDNSGSTPLHLAAQHGHLEIVEVLLKAGADVNAKDWWGWTPLHEAATTGHLEIVEVLLKAGADVNAQDKSGKTPADLAAHAGHEDIAEVLQKAA
- Kd: 15.9 nM
